Measurements taken from article PMC10773654.

Biological target: human Interleukin-1 Receptor Associated Kinase 1 (IRAK1) protein, nanoluciferase BiMC construct (human) (UniProt P51617)
Test: split reporter

UniProt P51617, sequence (P51617 whole entry): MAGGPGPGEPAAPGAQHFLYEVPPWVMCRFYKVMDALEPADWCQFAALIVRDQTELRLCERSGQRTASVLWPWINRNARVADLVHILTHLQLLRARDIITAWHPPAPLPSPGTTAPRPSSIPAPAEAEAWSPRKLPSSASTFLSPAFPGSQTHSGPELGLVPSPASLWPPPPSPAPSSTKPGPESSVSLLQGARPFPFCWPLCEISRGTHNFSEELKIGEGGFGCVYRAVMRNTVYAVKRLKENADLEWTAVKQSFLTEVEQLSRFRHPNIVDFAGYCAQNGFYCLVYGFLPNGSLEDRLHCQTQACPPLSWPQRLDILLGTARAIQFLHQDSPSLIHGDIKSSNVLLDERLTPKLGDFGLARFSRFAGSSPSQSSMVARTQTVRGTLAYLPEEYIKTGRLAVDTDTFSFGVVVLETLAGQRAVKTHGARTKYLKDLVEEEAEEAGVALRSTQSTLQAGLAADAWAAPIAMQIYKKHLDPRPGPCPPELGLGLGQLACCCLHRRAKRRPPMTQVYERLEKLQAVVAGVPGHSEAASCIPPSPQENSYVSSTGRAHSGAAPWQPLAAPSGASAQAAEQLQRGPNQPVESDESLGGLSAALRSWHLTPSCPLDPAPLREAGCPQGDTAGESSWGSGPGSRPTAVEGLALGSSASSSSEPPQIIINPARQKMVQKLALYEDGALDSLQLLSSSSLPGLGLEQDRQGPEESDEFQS

SINV CP truncation mutant ΔRI (RII and Protease domains) (domain or fragment)
fold BiMC of nanoluciferase relative to the full-length SINV CP protein: 2 fold
